Data set [1] concerns the target T1, TRBP dsRBD2 (TARBP2) (Homo sapiens) (UniProt Q15633).
T1 sequence: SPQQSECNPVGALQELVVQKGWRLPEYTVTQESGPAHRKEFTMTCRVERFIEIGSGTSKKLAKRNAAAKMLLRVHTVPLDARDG
The note with it: CITED; isolated dsRBD2; cited from earlier work.

Data set [2] deals with T2, Xlrbpa dsRBD2 (printed Xlbpra) (Xenopus laevis) (UniProt Q91836).
T2 sequence: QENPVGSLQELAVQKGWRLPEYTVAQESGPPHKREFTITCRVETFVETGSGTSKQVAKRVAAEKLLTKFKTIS
The conditions noted are these: CITED; isolated dsRBD2; cited from earlier work.

Data set [3] concerns the target T3, MBNL1(3-4,3-4) (Homo sapiens).
T3 chain: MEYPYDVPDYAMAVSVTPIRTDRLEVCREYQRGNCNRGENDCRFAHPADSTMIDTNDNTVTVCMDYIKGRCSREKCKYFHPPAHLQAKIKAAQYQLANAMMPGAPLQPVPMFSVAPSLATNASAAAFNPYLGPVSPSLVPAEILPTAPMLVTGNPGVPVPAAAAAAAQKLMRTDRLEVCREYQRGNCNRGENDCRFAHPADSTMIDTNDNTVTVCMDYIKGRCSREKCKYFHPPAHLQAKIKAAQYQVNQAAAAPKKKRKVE
In words: EMSA; 115 mM NaCl, 20 mM Tris pH 7.5, 5 mM MgCl2, heparin, room temperature; apparent Kd. The conditions noted are these: label: 5'-32P; short hairpin (predicted). From the text: (§1) All synthetic MBNL1 proteins were expressed and purified as N-terminal glutathione S-transferase (GST) fusions (FIG. 4A). These proteins were then used in electrophoretic mobility shift assays (EMSAs) with CUG₄ RNA substrate. The fraction of radiolabeled RNA bound to the protein was used to determine an apparent KD (dissociation constant). […] (FIG. 4B).
(§2) All RNA substrates were ordered from IDT (Coralville, Iowa) or Dharmacon (Lafayette, Colo.) and 5′ end-labelled using T4 PNK (NEB, Ipswich, Mass.) with [γ-³²P] ATP. All RNAs were purified on 10% polyacrylamide denaturing gels. Prior to incubation with protein, these RNAs were denatured by incubation at 95° C. for 2 minutes followed by a 5 minute incubation on ice. Once cooled the RNA was mixed with increasing concentrations of protein (final volume=10 μl) to yield final reaction conditions of 115 mM NaCl, 20 mM Tris pH 7.5, 1 mM β-ME, 0.01 mM EDTA, 10% glycerol, 5 mM MgCl₂, 0.1 mg/ml heparin, 2 mg/ml bovine serum albumin (BSA), and 0.02% xylene cyanol. […] Binding curves were quantified using ImageQuant software (GE Healthcare Life Sciences, Pittsburgh, Pa.). The fraction of RNA bound was calculated as the ratio of all RNA-protein complexes divided by total RNA signal in each lane. The apparent Kd was then determined using the following equation: fbound=fₘₐₓ([MBNL1]/([MBNL1+Kd)).

Data set [4] addresses T4, MBNL1(1-2,1-2) (Homo sapiens).
T4 chain: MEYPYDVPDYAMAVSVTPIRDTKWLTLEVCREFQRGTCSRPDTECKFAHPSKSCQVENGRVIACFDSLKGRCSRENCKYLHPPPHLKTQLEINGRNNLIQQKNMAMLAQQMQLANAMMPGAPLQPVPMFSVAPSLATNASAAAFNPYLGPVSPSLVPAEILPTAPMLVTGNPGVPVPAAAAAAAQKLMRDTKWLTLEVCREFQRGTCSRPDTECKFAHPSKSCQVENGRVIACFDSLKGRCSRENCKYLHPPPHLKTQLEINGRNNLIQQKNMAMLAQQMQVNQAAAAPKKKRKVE
Described as above. The note with it: label: 5'-32P; short hairpin (predicted).
Text: as §1, §2

For data set [5], the target named is T5, WT-MBNL1 (truncated, aa 1-260 with HA tag and SV40 NLS) (Homo sapiens, UniProt Q9NR56 SEQ:14-272).
T5 chain: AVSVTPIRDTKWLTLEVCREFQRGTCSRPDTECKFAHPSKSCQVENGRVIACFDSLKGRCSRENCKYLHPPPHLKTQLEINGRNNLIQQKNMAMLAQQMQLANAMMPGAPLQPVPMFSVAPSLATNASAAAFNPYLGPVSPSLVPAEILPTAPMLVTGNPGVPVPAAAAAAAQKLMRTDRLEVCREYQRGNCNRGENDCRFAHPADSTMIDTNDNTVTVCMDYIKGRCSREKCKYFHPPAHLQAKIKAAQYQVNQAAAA
In words: EMSA; 115 mM NaCl, 20 mM Tris pH 7.5, 5 mM MgCl2, heparin, room temperature; apparent Kd; repeated with another batch in FIG. 10C. The conditions noted are these: label: 5'-32P; short hairpin (predicted).
Text: as §1, §2

As to HIV TAR RNA, in data set [1], the Kd is 59 nM.
For 30 bp synthetic dsRNA, in data set [2], the Kd was 11 nM.

B1: CUG4 (ssRNA)
RNA: GCUGCUGUUCGCUGCUG
With B1, the Kd in data set [3] was 257 nM; in data set [4], 269 nM; in data set [5] it was 196 nM.

The values are drawn from patent publication US20190177380, “SYNTHETIC MBNL PROTEINS FOR TREATMENT OF REPEAT EXPANSION DISEASE” (University of Florida Research Foundation, Incorporated, published 2019).
